Positions count from the first letter of the chain named. In names and notes the source's numbering stands.
B1: EGE11 (FG loop …) (designed binder)
chain: EVVAATPTSLLISWRHPHFPTRYYRITYGETGGNSPVQEFTVPLQPPTATISGLKPGVDYTITGYAVTMGKNDRELLTPISINYRT
B2: F10 (Table 2) (designed binder)
chain: B1 chain with G70A, K71P, D73G
B3: F6 (designed binder)
chain: B1 chain with M69V, G70E, K71Q, D73G, E75V, L77M
B4: M5FL, E. coli-expressed, His6 (designed binder)
chain: VSDVPRDLEVVAATPTSLLISWRHPHFPTRYYRITYGETGGNSPVQEFTVPLQPPLATISGLKPGVDYTITVYAVTKERNGRELFTPISINYRTEIDKPSQHHHHHH
notes: soluble E. coli form with Ser100
B5: E19, E. coli-expressed, His6 (designed binder)
chain: EVVAATPTSLLISWRHPHFPTRYYRITYGETGGNSPVQEFTVPLQPPTATISGLKPGVDYTITGYAVTVERNGRHLMTPISINYRTEIDKPSQHHHHHH
notes: soluble E. coli form; N-terminal residues added for expression not described
B6: E18, E. coli-expressed, His6 (designed binder)
chain: B5 chain with H75E, M77N
notes: as for B5
B7: E29, E. coli-expressed, His6 (designed binder)
chain: B5 chain with H75V
notes: as for B5
B8: VR28, E. coli-expressed, His6 (designed binder)
chain: B4 chain with L56T, V72G, K77V, E78A, R79Q, G81D, R82H, F85I
notes: soluble E. coli form; N-terminal Met not described
B9: E6, E. coli-expressed, His6 (designed binder)
chain: B5 chain with V69D, E70G, R71W, H75L, M77S, T78I
notes: as for B5
B10: K14 (designed binder)
chain: B1 chain with M69R, G70E, K71E, R74H, T78I
notes: Del 1-8; in vitro translated, Flag tag
B11: K13 (designed binder)
chain: B1 chain with M69L, G70A, K71L, N72K, D73G, R74H
notes: as for B10
B12: K6 (designed binder)
chain: B1 chain with M69D, N72D, D73G, E75V
notes: as for B10
B13: K12 (designed binder)
chain: B1 chain with M69D, G70V, K71Y, R74H, L76I, L77K
notes: as for B10
B14: K15 (designed binder)
chain: B1 chain with M69E, G70V, K71H, N72H, L76I, L77K
notes: as for B10
B15: K1 (designed binder)
chain: B1 chain with K71L, N72Y, D73G, R74H
notes: as for B10
B16: K10 (designed binder)
chain: B1 chain with M69T, K71P, E75L, L77F, T78V
notes: as for B10
B17: K9 (designed binder)
chain: B1 chain with M69F, K71L, N72Y, D73G, R74K, T78I
notes: as for B10
B18: VR28 (designed binder)
chain: VSDVPRDLEVVAATPTSLLISWRHPHFPTRYYRITYGETGGNSPVQEFTVPLQPPTATISGLKPGVDYTITGYAVTVAQNDHELITPISINYRT
notes: 10Fn3 variant, WT N-terminus; also called VR28 (I69T)

Molecular target: mouse vascular endothelial growth factor receptor-2 Fc chimera (Flk-1-Fc) (mouse) (UniProt P35918)
Test: radioactive equilibrium binding

mouse vascular endothelial growth factor receptor-2 Fc chimera (Flk-1-Fc) (mouse), sequence (P35918 20-762, change not shown): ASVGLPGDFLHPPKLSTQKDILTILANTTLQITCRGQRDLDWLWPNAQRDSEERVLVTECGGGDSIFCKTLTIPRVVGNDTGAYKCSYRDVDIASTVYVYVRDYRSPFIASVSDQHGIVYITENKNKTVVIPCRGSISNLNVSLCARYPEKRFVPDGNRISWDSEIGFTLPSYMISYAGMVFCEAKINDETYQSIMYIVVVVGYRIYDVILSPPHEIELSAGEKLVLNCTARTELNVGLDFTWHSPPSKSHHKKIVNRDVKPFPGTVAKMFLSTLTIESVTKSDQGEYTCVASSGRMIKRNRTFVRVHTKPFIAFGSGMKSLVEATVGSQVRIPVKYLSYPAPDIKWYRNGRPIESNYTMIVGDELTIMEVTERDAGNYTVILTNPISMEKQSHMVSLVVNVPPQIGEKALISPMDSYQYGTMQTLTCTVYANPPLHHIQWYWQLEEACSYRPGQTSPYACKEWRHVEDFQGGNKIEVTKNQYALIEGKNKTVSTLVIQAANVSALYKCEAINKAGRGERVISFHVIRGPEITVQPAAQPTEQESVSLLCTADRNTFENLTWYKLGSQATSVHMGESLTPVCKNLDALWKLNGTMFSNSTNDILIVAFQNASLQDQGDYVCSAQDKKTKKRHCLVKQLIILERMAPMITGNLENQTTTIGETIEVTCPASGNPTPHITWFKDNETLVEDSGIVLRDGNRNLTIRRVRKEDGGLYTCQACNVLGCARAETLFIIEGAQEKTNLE

| Binding to 1 nM Flk-1, % [%] | Binder |
| --- | --- |
| 1 | B1 |
| 1 | B2 |
| 2 | B3 |

Molecular target: T1, flk-1/EpoR fusion (pmKE2) on CHO-Flk or Ba/F3-Flk cells (mouse; human, UniProt P35918 20-762; P19235 251-508, limits assumed)
Test: cell-based or functional assay

T1 sequence (P35918 other isoform, or with tags, fused parts or gaps limits assumed, form in doubt): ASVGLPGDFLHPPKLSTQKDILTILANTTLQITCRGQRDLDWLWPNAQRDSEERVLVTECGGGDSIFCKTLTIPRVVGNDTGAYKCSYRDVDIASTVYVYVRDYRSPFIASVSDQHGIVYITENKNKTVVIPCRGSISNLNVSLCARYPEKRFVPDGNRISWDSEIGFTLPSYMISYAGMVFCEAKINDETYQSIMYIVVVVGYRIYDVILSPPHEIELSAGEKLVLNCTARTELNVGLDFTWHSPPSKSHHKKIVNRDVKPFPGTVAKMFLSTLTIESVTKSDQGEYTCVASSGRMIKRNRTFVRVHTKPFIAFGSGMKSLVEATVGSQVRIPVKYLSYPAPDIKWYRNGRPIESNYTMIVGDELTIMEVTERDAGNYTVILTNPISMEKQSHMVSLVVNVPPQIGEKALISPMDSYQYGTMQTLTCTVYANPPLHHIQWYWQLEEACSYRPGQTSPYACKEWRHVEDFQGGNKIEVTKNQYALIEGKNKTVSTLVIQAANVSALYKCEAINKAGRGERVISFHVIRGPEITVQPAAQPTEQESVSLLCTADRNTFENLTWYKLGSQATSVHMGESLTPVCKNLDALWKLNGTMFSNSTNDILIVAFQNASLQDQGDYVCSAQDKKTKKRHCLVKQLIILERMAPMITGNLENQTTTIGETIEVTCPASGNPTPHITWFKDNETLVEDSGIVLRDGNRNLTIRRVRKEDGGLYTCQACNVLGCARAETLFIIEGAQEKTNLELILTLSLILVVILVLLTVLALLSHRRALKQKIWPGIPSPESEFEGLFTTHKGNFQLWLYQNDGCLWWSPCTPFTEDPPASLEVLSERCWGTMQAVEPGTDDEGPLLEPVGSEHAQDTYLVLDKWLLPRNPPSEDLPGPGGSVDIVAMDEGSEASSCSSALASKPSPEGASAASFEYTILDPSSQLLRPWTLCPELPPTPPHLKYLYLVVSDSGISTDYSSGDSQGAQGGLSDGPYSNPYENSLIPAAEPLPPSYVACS

| Inhibition of VEGF-induced proliferation, Ba/F3-Flk (IC50, nM) [nM] | Binder |
| --- | --- |
| 5.1 | B4 |
| 5.8 | B5 |
| 2.4 | B6 |
| 4.7 | B7 |

Molecular target: human KDR/EpoR fusion (phKE8) on Ba/F3-KDR cells (human, UniProt P35968 20-764; P19235 251-508, limits assumed)
Test: cell-based or functional assay

| Inhibition of VEGF-induced proliferation, Ba/F3-KDR (IC50, nM) [nM] | Binder |
| --- | --- |
| 3.9 | B4 |
| 12.3 | B5 |
| 5.4 | B6 |
| 10 | B7 |

Molecular target: VEGFR-2 (KDR) of HUVEC cells (human, UniProt P35968 20-1356)
Test: cell-based or functional assay

| Inhibition of VEGF-induced proliferation of HUVEC cells (IC50, nM) [nM] | Binder |
| --- | --- |
| 8.5 | B4 |
| 11.8 | B5 |
| 12.8 | B6 |
| 8.4 | B7 |

Molecular target: T2, human vascular endothelial growth factor receptor-2 Fc chimera (KDR-Fc) (human, UniProt P35968 20-764)
T2 construct: range 1-764; also called human VEGF-R2-Fc; not shown: human IgG1 Fc
Test: BIAcore, KDR-Fc immobilised on CM5 chip
Method: (§1) The binding kinetics of fibronectin-based scaffold proteins binding proteins to the target was measured using BIAcore 2000 biosensor (Pharmacia Biosensor). Human and mouse VEGF-R2-Fc fusions were immobilized onto a CM5 sensor chip and soluble binding proteins were injected at concentrations ranging from 0 to 100 nM in buffer O (10 mM HEPES, 150 mM NaCl, 0.005% Tween 20, pH 7.4). Sensorgrams were obtained at each concentration and were evaluated using a program, BIA Evaluation 2.0 (BIAcore), to determine the rate constants […] The affinity constant, KD was calculated from the ratio of rate constants koff/kₒₙ.

| Kd [nM] | koff [s⁻¹] | kon [M⁻¹ s⁻¹] | Binder |
| --- | --- | --- | --- |
| 0.89 | 9.2e-05 | 100000 | B4 |
| 13 | 0.00034 | 30000 | B8 |
| 0.06 | 1.7e-05 | 300000 | B5 |
| 0.08 | 6.7e-05 | 890000 | B9 |
| 0.46 | 0.000121 | 260000 | B6 |
| 0.19 | 7e-05 | 360000 | B7 |

Molecular target: T3, mouse vascular endothelial growth factor receptor-2 Fc chimera (Flk-1-Fc) (mouse, UniProt P35918 20-762)
T3 construct: bought from R&D Systems; also called mouse VEGF-R2-Fc; Fc part of the bought chimera not given, not described
Test: BIAcore, Flk-1-Fc immobilised on CM5 chip
Method: as §1

T3 sequence (P35918 20-762, change not shown): as the sequence (P35918 20-762, change not shown) above

| Kd [nM] | koff [s⁻¹] | kon [M⁻¹ s⁻¹] | Binder |
| --- | --- | --- | --- |
| 2.1 | 0.000582 | 280000 | B4 |
| 0.34 | 0.000223 | 660000 | B5 |
| 2.02 | 0.00136 | 670000 | B9 |
| 0.33 | 0.000195 | 600000 | B6 |
| 0.37 | 0.000288 | 790000 | B7 |

Molecular target: T1, flk-1/EpoR fusion (pmKE2) on CHO-Flk or …
Test: flow cytometry on CHO-Flk cells, anti-His6 detection

| EC50 [nM] | Binder |
| --- | --- |
| 5.3 | B5 |
| 0.9 | B6 |
| 0.6 | B7 |

Molecular target: T4, full-length human KDR on CHO-KDR cells (human, UniProt P35968 20-1356)
T4 construct: whole, on cells; stably transfected CHO-K1 cells
Test: flow cytometry on CHO-KDR cells, anti-His6 detection
Method: The functionality of KDR and Flk-1 binding molecules in a cell culture model system was evaluated with E. coli produced binding molecules.
Binding of fibronectin-based scaffold protein to cell-surface KDR and Flk-1 was analyzed simultaneously on VEGF-R2-expressing and control cells by flow cytometry. CHO-pcDNA3 cells (control) were released from their dishes with trypsin-EDTA, washed in Dulbecco's PBS without calcium and magnesium (D-PBS⁻; Invitrogen), and stained for 30 minutes at 37° C. with 1.5 μM CMTMR (5-(and-6)-(((4-chloromethyl)benzoyl)amino)-tetramethylrhodamine) (Molecular Probes). The cells were washed in D-PBS⁻ and incubated for a further 30 minutes at 37° C., and then resuspended in blocking buffer (D-PBS710% fetal bovine serum) on ice. CHO-KDR or CHO-Flk cells were treated identically except that CMTMR was omitted. 75,000 of CMTMR-stained CHO-pcDNA3 cells were mixed with an equal number of unstained CHO-KDR or CHO-Flk cells in each well of a V-bottom 96-well plate. All antibodies and fibronectin-based scaffold proteins were diluted in 25 μl/well of blocking buffer, and each treatment was conducted for 1 hour at 4° C. Cell mixtures were stained with His₆-tagged fibronectin-based scaffold proteins, washed twice with cold D-PBS⁻, and then treated with 2.5 μg/ml anti-His₆ MAb (R&D Systems), washed, and stained with 4 μg/ml Alexa Fluor 488-conjugated anti-mouse antibody (Molecular Probes). For cells treated with an anti-KDR mouse monoclonal antibody (Accurate Chemical, Westbury, N.Y.) or an anti-flk-1 goat polyclonal antibody (R&D Systems), the anti-His₆ step was omitted, and antibody binding was detected with the species-appropriate Alexa Fluor 488 conjugated secondary antibody (Molecular Probes). Following staining, cells were resuspended in 200 μl/well D-PBS⁻/1% FBS/1 μg/ml 7-aminoactinomycin D (7-AAD; Molecular Probes) and analyzed by flow cytometry on a FACSCalibur (Becton Dickinson, San Jose, Calif.) equipped with a […].

| EC50 [nM] | Binder |
| --- | --- |
| 7.6 | B5 |
| 4.2 | B6 |
| 2.3 | B7 |

Molecular target: T3, mouse vascular endothelial growth …
Test: radioactive equilibrium binding assay, 1 nM Flk-1-Fc, percent bound, average of 3 experiments

| binding result | Binder |
| --- | --- |
| no binding (tested: 1 nM Flk-1-Fc) | B10 |
| no binding (tested: 1 nM Flk-1-Fc) | B11 |
| no binding (tested: 1 nM Flk-1-Fc) | B12 |
| no binding (tested: 1 nM Flk-1-Fc) | B13 |
| no binding (tested: 1 nM Flk-1-Fc) | B14 |
| no binding (tested: 1 nM Flk-1-Fc) | B15 |
| no binding (tested: 1 nM Flk-1-Fc) | B16 |
| no binding (tested: 1 nM Flk-1-Fc) | B17 |

Molecular target: T5, human vascular endothelial growth factor receptor-2 Fc chimera (KDR-Fc) (human, UniProt P35968 20-764)
T5 construct: range 1-764; also called human VEGF-R2-Fc; hKDR; not shown: human IgG1 Fc
Test: BIAcore, 20 nM KDR-Fc over immobilized VEGF165 in the presence of the soluble binder; blocked ligand VEGF165
Method: For inhibition experiments, human VEGF₁₆₅ was immobilized on a surface of CM-5 chip and KDR-Fc was injected at a concentration of 20 nM in the presence of different concentrations of soluble binding proteins ranging from 0 to 100 nM. IC₅₀ was determined at a concentration when only 50% of KDR-Fc binding to the chip was observed.

| IC50 (read off the curve) [nM] | Binder |
| --- | --- |
| ~20 | B18 |

Reference: patent US20100310549A1 (Bristol-Myers Squibb, published 2010)
